Experimental data as given in the DeepSol protein solubility set.

Test: soluble on expression in E. coli; label from the status in PepcDB or PDB records

Sequence | soluble on expression in E. coli
MTVTSMLDNVLRIATRQSPLALWQAHYVKDALMATHPGLTVELVPMVTRGDVILDTPLAKVGGKGLFVKELEIALLEKRADIAVHSMKDVPVAFPDGLGLVTICEREDPRDAFVSNKYHSLDDLPAGSIVGTSSLRRQCQLAERRPDLIIRSLRGNVGTRLGKLDNGDYDAIILAVAGLKRLGLESRIRTALPPDVSLPAVGQGAVGIECRLDDARTQALLAPLNHSQTALRVTAERAMNTRLEGGCQVPIGSYAEIINGEIWLRALVGAPDGSVMVRGERRGSPEQAEQMGISLAEELLENGARAILTEVYNGETPA | not soluble
GMCINRQILNAVTASNRKKNTPLNTYVSFDEPVNPEDDSQVKLVDVLKSDKEQNPERLFIDQENAESLEDKLYSVLSGFEKNVLELYMSGKDYIAIAQTLDKPPKSIDNAIQRIRNKVDKITNL | not soluble
TDKEEFALYCEAKNDKVRKRLGIKGGFYWTTAKKLSVAISRCITAMDDNDYDEDDFKKPVRVNLPVVDDLPPEGVFDTEFCNRYEKGGKDGITMTFIGPSPSVQDKPASTDNTNINGEAMTEIEESMLLPVSGQELPIRWLAQHGSEKPVTHVSRDELQALHIARAEELPAVTALAISHKTSLLDSL | not soluble
MMRNEHVAKGITGVSWYDFKQKLKYKAECGNMEFIEIGRFDPSFEIWSRCGWIDYNLKLSDRIFRCENCGLVIDRDLNTAINISNMELKKVGKGIPEFTPVDIATAADPTIRTGTASSRSMNREPPKPKRLEHHHHHH | not soluble
MYVLIGGAGLIGQQLARQVLDQGHTVAVIDQDPQVCKMVRDRLGAMAFEGSAVNTDILLEAGICRADAVAAVLRQDALNLALVTLACHYGVSRIISRISQQDFIEPMRLAGAHHIISTVDLVVSTMVNAIECPQVESMLHFEQGQIEVFKLTLDSQSPVIGRSVAAIAQDRNFPSSSLIIGYQSHPQADLVIPSGNTVLEANATVLLATKPGLVQSLVNFLMPSLFSPLEHHHHHH | not soluble
MYIIAHRGASGYAPENTIAAFDLAVKMNADMIELDVQLTKDRQIVVIHDDRVDRTTNGSGFVKDFTLEELQKLDAGSWYGPAFQGERIPTLEAVLKRYHKKIGLLIELKGHPSQVGIEEEVGQLLGQFSFSINNIVQSFQFRSVQRFRELYPSIPTAVITRPNFGMLSRNQMKAFRSFANYVNIKHTRLNRLMIGSINKNGLNIFAWTVNNQKTAAKLQAMGVDGIVTDYPDFIIKDGKHENILEHHHHHH | not soluble
MTHDNKLQVEAIKRGTVIDAIPAQIGFKLLSLFKLTETDQRITIGLNLPSGEMGRKDLIKIENTFLSEDQVDQLALYAPQATVNRIDNYEVVGKSRPSLPERIDNVLVCPNSNCISHAEPVSSSFAVRKRANDIALKCKYCEKEFSHNVVLAN | soluble
GKITFYEDRGFQGHCYESSSDCPNLQPYFSRCNSIRVDSGCWMLYERPNYQGHQYFLRRGDYPDYQQWMGFNDSIRSCRLIPQHTGTFRMRIYERDDFRGQMSEITDDCPSLQDRFHLTEVHSLNVLEGSWVLYEMPSYRGRQYLLRPGEYRRYLDWGAMNAKVGSLRRVMDFY | soluble
MGSDKIHHHHHHMAFTNNVMIVRHKLLAKLVNLWKENKLTNEIDRLPIELSPRRSRPLGRCCIHKERAVYKYKLFPLLGFDMTDETDELTSLSEYARQALERKNKQKENILCVIDEACSSCVQVNYEVTNLCRGCVARSCYMNCPKDAIRFRKNGQAKIDHDACISCGKCHQSCPYHAIVFIPVPCEEACPVKAISKDENGIEHIDESKCIYCGKCLNACPFGAIFEISQAFDVLEGIRSGEKMIAIPAPSILGQFNTSIEAVYGALRQMGFADVVEVAQGAMDTVSHEAAELKEKLEEGQPFMTTSCCPSYIELVNKHIPGMKPYVSSTGSPMYYAARIAKERHPDAKIVFIGPCVAKRKEARRDECVDYILTFEEMASIFEGLDIQLEQTQPFSVLYTSVREAHGFAQAGGVMGAIKAYLGEEAKKFSAIQVSDLNKKNIGLLRAAAKTGKAQGQFIEVMACEGGCISGPSAHNDAIGGRRQLNQELIKRRESYEETHR | not soluble
MKYIIIGLGNYGHVLAEELSALGHEIIGADISESRVDSIKDKVATAFVIDATDEQSLSVLPLNSVDIVVVAIGENFGASVRVVALLKQKKVPRIFARAIDAVHKAVLEAFSLEKILTPEEDAARSLVQLLDFGATMEAFRIDQDYYVVKFTVPKKFVGYFVNELNMDEEFHLKLIALKRANKVTNCLGISLMERHVKNELPGDEKVEEGDELVCYGKYRDFQSFWKAILEHHHHHH | soluble
MLSSSGHAIRRGITTSAALSNKHAFIVGAARTPIGSFRSSLSSVTAPELASVAIKAALERGAVKPSSIQEVFLGQVCQANAGQAPARQAALGAGLDLSVAVTTVNKVCSSGLKAIILAAQQIQTGHQDFAIGGGMESMSQVPFYVQRGEIPYGGFQVIDGIVKDGLTDAYDKVHMGNCGEKTSKEMGITRKDQDEYAINSYKKSAKAWENGNIGPEVVPVNVKSKKGVTIVDKDEEFTKVNFDKFTSLRTVFQKDGTITAANASTLNDGAAAVIVASQEAVSEQSLKPLARILAYGDAATHPLDFAVAPTLMFPKILERAGVKQSDVAQWEVNEAFSCVPLAFIKKLGVDPSLVNPHGGAVSIGHPIGMSGARLITHLVHTLKSGQIGVAAICNGGGGSSGMVIQKL | not soluble
MGSDKIHHHHHHMKILITGATGFVGRNLVPYLFSHGFVELAIAVRDPQKAISMFESIPLTYISCERTFRQQIIDFAPEVVIHLATNFNFHSDEKSVRDIVDANILFGSLLLEAVSYTPCKFFINLGTFAEYYYNDGNFLPNTFYAATKTAFRSIIQYYQLKGDFKWINLIGYTIYGKKNDSKKIIDYLIDALNSPIPLNFTKGEQINDFIHINDVSDFFYVLLSNLNLLEDTMYTQLYLGTGKGTSIRELSYIIETVYKQKVNANWGGLSYRPYDIMYAVAPISRNLDLLKWKTKISLEEGIKMLRYE | not soluble
MGDNGTGIECIGLPPGFSIDYYAEGVEGARSMALSPEGTLFAGSRGAGKLYAMTDRNGDNKADDVLVIAEGLDMPNGVAFRNGSLYVAEISRVLRYDDIEARLENPPDPAVVRGDFPADRSHGWKYIKFGPDGKLYVPVGMPCNVCNLEEEEERYGTMMRMEPDGSQPEIFARGIRNTVGFAWNPETGELWFTDNGRDWLGDDLPPDELNRAPVPGMHFGFPYCHGKDTPDPEYGEFRNCSEFTAPEVELGPHVAALGMTFYNGSMFPEEYRNQIFIAEHGSWNRKIPIGYRVSLVRLENGTPVSYEPFADGWLQGLASWGRPVDVLVMPDGALLVSDDKNNAIYRISLEHHHHHH | not soluble
MGSDKIHHHHHHMGIGIIIASHGKFAEGIHQSGSMIFGEQEKVQVVTFMPNEGPDDLYGHFNNAIAQFDADDEVLVLADLWSGSPFNQASRVMGENPERKMAIITGLNLPMLIQAYTERMMDANAGVEQVAANIIKESKEGIKALPEELNPVVEATPVAGVPADVPAEVKQSGSIPEGTVIGDGKLKINLARIDTRLLHGQVATAWTPASKANRIIVASDEVSKDELRKQLIKQAAPGGVKANVVPISKLIEVAKDPRFGNTRALILFETVQDALRAIEGGVEIPELNVGSMAHSTGKTMVNNVLSMDKDDVAAFEKLRDLGVSFDVRKVPNDAKKNLFDLINKANVK | not soluble
MAHHHHHHSLKEAEVLKYEAFTSSPGKGNPAGVVLQGDDYTEDEMQIIAERAGYSETSFIRKSESADLELRYFTPGHEMNLCGHATVASLYALCEKGMLESGKTYSIQTKAGILPVKISEKDGRIHITLEQASPQFKPFTGDRKKLADALGITDEDFHEDLPIVFGSTGIWTAIVPLKSLEASKKMVPDNKQFPEVLVDLPKASVHPFTFETVHPDSDLHGRHFSSPYSGTIEDPVTGTASGVMGAYMKHYGNAEQHKFIIEQGQEIGKDGKVEIEMNEAGGHVKVNMTGTAVYSETRILKIEG | not soluble
MRLNHKQGTAGEDAALAFLQSQGCTLLARNWHCAYGEIDLIVKNGGMILFVEVKYRKNQRFGGAAYSISPSKLLKLQRSVEYYLQQNRLTNVPCRLDAVLIEGNRPPEWIKNITG | soluble
RLIVGKHHWKIEKQPEWYVKAVRKTIAALPSGYAEAADWLDVTENALFNRLRADGDQIFPLGWAMVLQRAGGTHFIADAVAQSANGVFVSLPDVEDVDNADINQRLLEVIEQIGSYSKQIRSAIEDGVVEPHEKTAINDELYLSISKLQEHAALVYKIFCISESNDARECAAPGVVASIASGCGETNA | soluble
GSHMLHWGPKYWRSLHLYAIFFSDAPSWKEKYEAIQWILNFIESLPCTRCQHHAFSYLTKNPLTLNNSEDFQYWTFAFHNNVNNRLNKKIISWSEYKNIYEQSILK | soluble
MQVTHKILKIPSKGYRKILSLLNEKGQARLIGGCVRDALLDLLHNKTNKEEFEGDTERRIAMYINVREDSSTGSTYKLPLEASYPRDRLEKGSCDIDIATNLTPSEVTNILSGAKIKTIPTGLKFGTITATLNNEKFEITTLRKDIECNGRHAKVIFTNDFAEDAARRDFTINALSYCPFKNEIYDYFEGFKDLQQEKVVFIGEALDRIKEDYLRILRFFRFSSYYANQLDDGNFKACKALKDGLKTLSRERIKSEMDKIIVSKRAAQILKAMFEIGILELIFSIQNYEIKFFEQANDFKLELVTRYALLLYCQKDLNLKVFLDWKFSKHEAMQILSITNFLNDAKFNMKKIWFEKKNYKEYLLAARIIGKLNHSQVKEFILKYDALLRPKFQVNGNDLLNMNIEKKKIGAKLEYLKNFWIEQDFKPSKLELLAKL | soluble
MSDMSEQSVEIASSQLGTKDFWDQRYELELKNFKQHGDEGEVWFGTSSETRIVKYLIDSKTGKDAKILDLGCGNGSVLRKLRSKGFQSLKGVDYCQKAVDLSAAASKAEREEEEDEELVDIEFEQLDITTPPADFFSSKFDVILDKGTWDAMSLSDEREARLKAYLGFLDNGLSAGGRFVIFSCNFTFDEMCSQFGGGGGSTSLEIVCEVPASHSFSFGGKQGVTSTGAVFRKKTL | not soluble
MSLDAAQAMSKIPVIGKIVKAITFIEIKEEKDQSSIDVKTPALSGLSNKELENSINEKYLKESQQLYKEFIQSTSKNKKGHLSIYSDYETVTDTPDLLSIRRNIETTQASSYTQSRYITIDKKNDILLTLKSLFKDERYIKVISQNIKEQMKQQMKEDPNKIYWLTDEDAEPFKTILPDQTFYITEDHKLVISFDEYEVAPGYMGVTEFTIPTGVISNLLVGERYIREGHHHHHH | soluble
SFREQDIYLPIANVARIMKNAIPQTGKIAKDAKECVQECVSEFISFITSEASERCHQEKRKTINGEDILFAMSTLGFDSYVEPLKLYLQKFRE | soluble
MSKVPSDIEIAQAAKMKPVMELARGLGIQEDEVELYGKYKAKISLDVYRRLKDKPDGKLILVTAITPTPAGEGKTTTSVGLTDALARLGKRVMVCLREPSLGPSFGIKGGAAGGGYAQVVPMEDINLHFTGDIHAVTYAHNLLAAMVDNHLQQGNVLNIDPRTITWRRVIDLNDRALRNIVIGLGGKANGVPRETGFDISVASEVMACLCLASDLMDLKERFSRIVVGYTYDGKPVTAGDLEAQGSMALLMKDAIKPNLVQTLENTPAFIHGGPFANIAHGCNSIIATKTALKLADYVVTEAGFGADLGAEKFYDVKCRYAGFKPDATVIVATVRALKMHGGVPKSDLATENLEALREGFANLEKHIENIGKFGVPAVVAINAFPTDTEAELNLLYELCAKAGAEVALSWAKGGEGGLELARKVLQTLESRPSNFHVLYNLDLSIKDKIAKIATEIYGADGVNYTAEADKAIQRYESLGYGNLPVVMAKTQYSFSDDMTKLGRPRNFTITVREVRLSAGGRLIVPITGAIMTMPGLPKRPAACNIDIDADGVITGLF | soluble
